Measured values published in paper PMC6823378, “Clathrin light chain A drives selective myosin VI recruitment to clathrin-coated pits under membrane tension” (Nature Communications, 2019).
Numbering of substitutions follows the chain as printed. Names may count otherwise. Each block holds one molecule with its values, some of them ahead of it. Ends that are not written are not given here. * marks the point of attachment. 5FAM = O=C1OC2(c3ccc(O)cc3Oc3cc(O)ccc32)c2ccc(C(=O)*)cc21

T1: myosin VI^998–1131 of the long isoform (myosin VI_(long)), cleaved from GST and purified (human, UniProt Q9UM54 998-1131)
T1 chain: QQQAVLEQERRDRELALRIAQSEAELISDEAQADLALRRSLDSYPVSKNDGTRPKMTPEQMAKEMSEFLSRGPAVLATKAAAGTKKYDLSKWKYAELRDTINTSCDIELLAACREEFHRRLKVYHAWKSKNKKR

T2: His-Hip1R coiled-coil region (amino acids 346–655) (UniProt O75146 346-655)
T2 construct: also called His-Hip1R^346–655; Hip1R^346–655; source: bacterially purified (pRSF-duet)
T2 sequence (looked up): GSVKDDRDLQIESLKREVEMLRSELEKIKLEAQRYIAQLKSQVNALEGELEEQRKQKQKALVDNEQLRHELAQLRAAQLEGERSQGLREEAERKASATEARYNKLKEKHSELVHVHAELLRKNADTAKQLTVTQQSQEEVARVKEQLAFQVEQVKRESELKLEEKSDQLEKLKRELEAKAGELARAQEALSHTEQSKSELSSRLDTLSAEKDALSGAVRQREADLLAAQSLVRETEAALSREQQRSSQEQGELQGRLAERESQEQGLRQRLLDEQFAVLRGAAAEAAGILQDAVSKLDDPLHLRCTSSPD

T3: myosin VI^1069–1131 (human, UniProt Q9UM54 1069-1131)
T3 chain: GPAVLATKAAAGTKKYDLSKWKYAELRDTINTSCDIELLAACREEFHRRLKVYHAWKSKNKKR

T4: 5-carboxyfluorescein (5-FAM)-conjugated CLCa peptide 51–61 (human, UniProt P09496 51-61, also: 5-FAM conjugated, site not given here)
T4 construct: clathrin light chain A (CLCa), human, amino acids 51–61; source: synthetic peptide (GenScript)
T4 peptide (looked up): AFAILDGGAPG

T5: 5-carboxyfluorescein (5-FAM)-conjugated CLCa peptide 51–66 (human, UniProt P09496 51-66, also: 5-FAM conjugated, site not given here)
T5 construct: clathrin light chain A (CLCa), human, amino acids 51–66; source: synthetic peptide (GenScript)
T5 peptide (looked up): AFAILDGGAPGPQPHG

B1: CLCa^46–61, recombinant, cleaved from GST (for the NMR structure) (peptide, UniProt P09496 46-61, looked up)
peptide: IENDEAFAILDGGAPG
notes: clathrin light chain A (CLCa), human, amino acids 46–61; 13C,15N-labelled in one of the two samples; source: E. coli BL21 (DE3), GST fusion cleaved with PreScission Protease in the presence of myosin VI, purified (SEC)
B2: 5-carboxyfluorescein (5-FAM)-conjugated CLCa peptide 51–61 (peptide)
peptide: AFAILDGGAPG
modifications: also: 5-FAM conjugated, site not given here
B3: GST-CLCa fragment of amino acids 47–97 (domain or fragment, human, UniProt P09496 47-97, looked up)
chain: ENDEAFAILDGGAPGPQPHGEPPGGPDAVDGVMNGEYYQESNGPTDSYAAI
notes: clathrin light chain A (CLCa), human, amino acids 47–97; also called CLCa 47–97; source: E. coli Rosetta (DE3), on glutathione-sepharose beads
B4: 5-carboxyfluorescein (5-FAM)-conjugated CLCa peptide 51–66 (peptide)
peptide: AFAILDGGAPGPQPHG
modifications: also: 5-FAM conjugated, site not given here
B5: CLCa full length, bacterially produced (ITC; reconstitution of cages) (natural protein, human, UniProt P09496 1-248, looked up)
chain: MAELDPFGAPAGAPGGPALGNGVAGAGEEDPAAAFLAQQESEIAGIENDEAFAILDGGAPGPQPHGEPPGGPDAVDGVMNGEYYQESNGPTDSYAAISQVDRLQSEPESIRKWREEQMERLEALDANSRKQEAEWKEKAIKELEEWYARQDEQLQKTKANNRVADEAFYKQPFADVIGYVTNINHPCYSLEQAAEEAFVNDIDESSPGTEWERVARLCDFNPKSSKQAKDVSRMRSVLISLKQAPLVH
notes: clathrin light chain A (CLCa), human; Cleavage from GST is told for the cage reconstitution; also called CLCa FL; CLCa WT; source: bacterially produced and cleaved from GST, purified
B6: myosin VI^1050–1131 of the long isoform, cleaved from GST and purified (domain or fragment, human, UniProt Q9UM54 1050-1131, looked up)
chain: RPKMTPEQMAKEMSEFLSRGPAVLATKAAAGTKKYDLSKWKYAELRDTINTSCDIELLAACREEFHRRLKVYHAWKSKNKKR
notes: 15N- or 13C,15N-labelled in some NMR samples; also called Myo6; source: E. coli Rosetta (DE3) or BL21 (DE3), GST fusion cleaved with PreScission Protease, purified (ion exchange or SEC)
B7: CLCa I54D full length (ITC) (natural protein, human, UniProt P09496 1-248, looked up)
chain: B5 chain with I54D
notes: clathrin light chain A (CLCa), human, I54D
B8: 5-carboxyfluorescein (5-FAM)-conjugated CLCa peptide 46–61 (peptide, UniProt P09496 46-61, looked up)
peptide: 5FAM-IENDEAFAILDGGAPG
notes: clathrin light chain A (CLCa), human, amino acids 46–61; also called CLCa^46–61; source: synthetic peptide (GenScript)
B9: myosin VI^998–1131 of the long isoform (myosin VI_(long)), cleaved from GST and purified (domain or fragment, human, UniProt Q9UM54 998-1131, looked up)
chain: T1 chain
notes: source: E. coli Rosetta (DE3), GST fusion cleaved with PreScission Protease, purified (ion exchange)

Legend:
[1] = target: 5-carboxyfluorescein (5-FAM)-conjugated CLCa peptide 46–61 (human) (UniProt P09496); assay: fluorescence polarisation; 20–50 nM 5-FAM-conjugated CLCa peptide titrated with purified myosin VI fragment from ~150 µM, 22 °C, 384-well plate
[2] = target: myosin VI^1050–1131 of the long isoform, cleaved from GST and purified (UniProt Q9UM54); assay: GST pull-down, Coomassie, band quantitation; conditions: parent: est. 23; read off a plot
Chain of myosin VI^1050–1131 of the long isoform, cleaved from GST and purified (UniProt Q9UM54) (Q9UM54 whole entry, looked up, tested part not stated, canonical isoform): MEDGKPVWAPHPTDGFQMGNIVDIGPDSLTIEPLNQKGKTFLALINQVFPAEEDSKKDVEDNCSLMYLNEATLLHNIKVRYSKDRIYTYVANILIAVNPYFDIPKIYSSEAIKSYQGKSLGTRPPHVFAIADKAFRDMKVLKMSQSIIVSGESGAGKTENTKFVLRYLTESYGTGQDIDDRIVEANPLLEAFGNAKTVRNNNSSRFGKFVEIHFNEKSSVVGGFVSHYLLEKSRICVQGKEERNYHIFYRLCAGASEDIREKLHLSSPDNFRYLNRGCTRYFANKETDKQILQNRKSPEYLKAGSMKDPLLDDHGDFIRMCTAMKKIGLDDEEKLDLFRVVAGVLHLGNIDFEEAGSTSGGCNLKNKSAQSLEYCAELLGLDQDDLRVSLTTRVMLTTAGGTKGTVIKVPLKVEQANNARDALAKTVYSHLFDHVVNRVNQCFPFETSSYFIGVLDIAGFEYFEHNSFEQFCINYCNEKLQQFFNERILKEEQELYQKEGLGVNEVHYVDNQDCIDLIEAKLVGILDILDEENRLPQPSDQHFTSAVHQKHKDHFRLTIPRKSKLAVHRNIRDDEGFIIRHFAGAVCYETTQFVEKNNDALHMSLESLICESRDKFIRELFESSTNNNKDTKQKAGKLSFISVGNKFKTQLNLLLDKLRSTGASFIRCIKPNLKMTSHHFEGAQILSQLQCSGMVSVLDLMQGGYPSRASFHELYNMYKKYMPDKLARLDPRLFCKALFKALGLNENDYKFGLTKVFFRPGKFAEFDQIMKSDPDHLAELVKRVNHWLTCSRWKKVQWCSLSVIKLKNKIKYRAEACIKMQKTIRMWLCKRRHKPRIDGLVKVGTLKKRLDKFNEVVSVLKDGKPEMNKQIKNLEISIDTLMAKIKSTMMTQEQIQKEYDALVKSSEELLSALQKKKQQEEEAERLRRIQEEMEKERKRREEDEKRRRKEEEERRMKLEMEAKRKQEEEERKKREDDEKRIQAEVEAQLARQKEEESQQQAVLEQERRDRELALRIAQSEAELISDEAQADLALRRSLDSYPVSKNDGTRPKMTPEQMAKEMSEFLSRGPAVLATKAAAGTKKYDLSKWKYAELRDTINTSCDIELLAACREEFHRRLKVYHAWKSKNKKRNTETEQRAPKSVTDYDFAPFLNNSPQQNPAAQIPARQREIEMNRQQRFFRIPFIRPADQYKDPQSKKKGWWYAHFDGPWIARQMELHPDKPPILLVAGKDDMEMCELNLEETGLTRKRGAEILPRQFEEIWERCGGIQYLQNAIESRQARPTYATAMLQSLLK

[3] = target: B6; assay: NMR structure; complex of myosin VI^1050–1131 and CLCa^46–61, 221 intermolecular NOEs; 10 °C, 20 mM NaPO4 pH 6.5, 50 mM NaCl, 2 mM DTT; conditions: both partners purified
[4] = target: T1, myosin VI^998–1131 of the long isoform …; assay: FP
[5] = target: B9; assay: pull-down; GST-CLC proteins (1.5 μM) on glutathione sepharose beads incubated 1 h at 4 °C in JS buffer with cleaved and purified myosin VI fragments; SDS-PAGE, Coomassie; conditions: both partners purified
[6] = target: T2, His-Hip1R coiled-coil region (amino …); assay: ITC; 380 µM CLCa WT or I54D titrated into 20 µM Hip1R^346–655 or myosin VI^1050–1131 in the cell; 20 mM Tris-HCl pH 8.0, 150 mM NaCl, 2.5% glycerol, 25 °C; one-set-of-sites model; conditions: both partners purified
[7] = target: B6; assay: as above; conditions: both partners purified
[8] = target: B5; assay: as above; conditions: both partners purified
myosin VI^1069–1131 = target: T3, myosin VI^1069–1131; assay: FP
[9] = target: B9; assay: fluorescence polarisation; 20–50 nM 5-FAM-conjugated CLCa peptide titrated with purified myosin VI fragment from ~150 µM, 22 °C, 384-well plate; conditions: both partners purified
[10] = target: B6; assay: as above; conditions: both partners purified
[11] = target: T4, 5-carboxyfluorescein (5-FAM)-conjugated …; assay: as above; conditions: both partners purified
[12] = target: T5, 5-carboxyfluorescein (5-FAM)-conjugated …; assay: as above; conditions: both partners purified

Kd [1]: 96000 nM
Molecule: myosin VI^998–1131 of the short isoform (myosin VI_(short)), cleaved from GST and purified (domain or fragment)

response [2]: 3 % of binding
Molecule: GST-CLCa 46–61 WT I54D

difference in binding affinity against the wild type [1]: 2 log-fold
Molecule: myosin VI Y1121A mutant used for FP analysis (domain or fragment)

Molecule: B1
binding result [3]: binds

Molecule: B2
Kd [4]: 22600 nM

Molecule: B3
binding result [5]: binds

Molecule: B4
Kd [4]: 13100 nM

Molecule: B5
Kd [6]: 1370 nM | dH [6]: -9.7 kcal/mol | stoichiometry N [6]: 1.15 sites | dH [7]: -11.6 kcal/mol | stoichiometry N [7]: 0.79 sites

Molecule: B6
Kd [8]: 90 nM

Molecule: B7
Kd [6]: 990 nM | dH [6]: -8.72 kcal/mol | stoichiometry N [6]: 1.01 sites

Molecule: B8
Kd (myosin VI^1069–1131): 22000 nM | Kd [9]: 930 nM | Kd [10]: 400 nM

Molecule: B9
fold higher affinity of peptide 46–61 than of this peptide [11]: 10 fold | fold higher affinity of peptide 46–61 than of this peptide [12]: 10 fold
